From patent US20070036793A1, “Methods for use of an lkb1/strad7mo25 complex” (priority 2003, published 2007) come the findings set out here.

The test concerns the target T1, LKB1 (Mus musculus, UniProt Q9WTK7).
T1 construct: Constructs expressing the full length wild type and kinase dead mouse LKB1 have been described previously; made in house; host or cells: 293 cells, transiently transfected
T1 sequence (Q9WTK7 1-433 limits assumed): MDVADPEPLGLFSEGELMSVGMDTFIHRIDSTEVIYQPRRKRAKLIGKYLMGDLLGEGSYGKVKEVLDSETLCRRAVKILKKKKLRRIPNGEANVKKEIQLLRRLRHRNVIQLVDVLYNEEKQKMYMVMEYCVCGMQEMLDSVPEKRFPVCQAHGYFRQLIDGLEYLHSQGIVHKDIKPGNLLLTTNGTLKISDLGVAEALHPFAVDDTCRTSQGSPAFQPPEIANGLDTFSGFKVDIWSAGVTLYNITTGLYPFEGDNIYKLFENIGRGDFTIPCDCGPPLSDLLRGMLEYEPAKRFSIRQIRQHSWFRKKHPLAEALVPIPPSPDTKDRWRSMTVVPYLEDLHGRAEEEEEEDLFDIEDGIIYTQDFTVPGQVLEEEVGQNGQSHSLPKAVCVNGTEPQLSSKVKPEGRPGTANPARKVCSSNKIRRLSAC
T1 sequence (Q7RTN6 1-431 partner): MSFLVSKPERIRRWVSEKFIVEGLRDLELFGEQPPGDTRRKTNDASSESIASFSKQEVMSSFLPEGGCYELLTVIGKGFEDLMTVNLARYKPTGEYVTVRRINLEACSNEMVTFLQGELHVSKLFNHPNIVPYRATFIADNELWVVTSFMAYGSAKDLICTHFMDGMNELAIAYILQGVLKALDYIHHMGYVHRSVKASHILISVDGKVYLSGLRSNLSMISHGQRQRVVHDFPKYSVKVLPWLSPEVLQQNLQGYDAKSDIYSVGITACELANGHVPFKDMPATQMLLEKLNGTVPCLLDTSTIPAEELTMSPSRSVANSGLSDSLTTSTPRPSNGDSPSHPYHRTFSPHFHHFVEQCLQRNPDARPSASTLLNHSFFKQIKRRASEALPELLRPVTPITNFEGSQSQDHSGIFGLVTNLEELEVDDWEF
T1 sequence (Q9Y376 1-341 partner): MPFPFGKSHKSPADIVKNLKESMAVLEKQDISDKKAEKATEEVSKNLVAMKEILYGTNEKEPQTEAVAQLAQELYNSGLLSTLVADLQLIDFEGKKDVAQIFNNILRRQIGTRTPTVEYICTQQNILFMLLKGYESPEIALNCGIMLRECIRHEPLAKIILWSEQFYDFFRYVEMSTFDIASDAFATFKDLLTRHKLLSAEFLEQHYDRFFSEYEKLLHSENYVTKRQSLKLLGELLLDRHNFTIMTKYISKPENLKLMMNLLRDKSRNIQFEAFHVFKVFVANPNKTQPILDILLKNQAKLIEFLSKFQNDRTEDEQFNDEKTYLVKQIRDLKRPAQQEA
Put plainly: LKB1 autophosphorylation and phosphorylation of MBP after co-expression with STRAD and MO25 isoforms in 293 cells. The test is classed as biochemical. To be noted: GST-LKB1 co-expressed with STRAD and MO25 isoforms in 293 cells. As for the experimental part: FIG. 9. Activation of LKB1 by association with STRAD and MO25 Isoforms. 293 cells were transfected with constructs encoding GST-LKB1 in the presence or absence of constructs encoding the indicated isoforms of STRAD and MO25. 36 h post-transfection, GST-LKB1 was affinity purified and assayed for autophosphorylation and transphosphorylation of MBP as described in the materials and methods. The reactions were electrophoresed and the gel autoradiographed (top panel). Phosphorylation of MBP by LKB1 at Thr65 was also monitored by immunoblotting with a phosphospecific antibody (T65-P), which recognises MBP phosphorylated by LKB1 at this residue. Each reaction was also immunoblotted with the appropriate epitope tag antibodies to monitor levels of LKB1, STRAD and MO25 isoforms. Similar results were obtained in 3 separate experiments.
LKB1 autophosphorylation and phosphorylation of MBP. […] After incubation for 40 min at 30° C., the reactions were terminated by the addition of 8 μl of sample Buffer. 30 μl was electrophoresed on SDS-polyacrylamide gels, which were then dried and analysed by autoradiography to quantify LKB1 autophosphorylation, MBP and STRADα phosphorylation. 5 μl of each reaction was diluted in 45 μl of 1× SDS Sample Buffer. […]

B1: STRADα: STE20-related pseudokinase (STe20-Related ADaptor protein-α) that binds and activates LKB1 (protein, UniProt Q7RTN6 1-431, looked up)
STE20-related kinase adapter …: MSFLVSKPERIRRWVSEKFIVEGLRDLELFGEQPPGDTRRKTNDASSESIASFSKQEVMSSFLPEGGCYELLTVIGKGFEDLMTVNLARYKPTGEYVTVRRINLEACSNEMVTFLQGELHVSKLFNHPNIVPYRATFIADNELWVVTSFMAYGSAKDLICTHFMDGMNELAIAYILQGVLKALDYIHHMGYVHRSVKASHILISVDGKVYLSGLRSNLSMISHGQRQRVVHDFPKYSVKVLPWLSPEVLQQNLQGYDAKSDIYSVGITACELANGHVPFKDMPATQMLLEKLNGTVPCLLDTSTIPAEELTMSPSRSVANSGLSDSLTTSTPRPSNGDSPSHPYHRTFSPHFHHFVEQCLQRNPDARPSASTLLNHSFFKQIKRRASEALPELLRPVTPITNFEGSQSQDHSGIFGLVTNLEELEVDDWEF
Regarding B1, the “increase in LKB1 activity relative to LKB1 expressed alone” value is given as 4 fold.
